Results published in the nanobody polyreactivity screen of Harvey et al. (2022).

test: yeast display, Sf9 membrane polyspecificity reagent, FACS + sequencing; frameworks hold sequencing errors
Outline: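 Using colony PCR, genes from sorted yeast display clones were amplified, then sequenced on MiSeq at 2 × 250 and filtered by CDR length. The clones had been stained with 10% biotinylated, detergent-solubilized Sf9 membrane reagent for 1 hour at 4 °C and sorted by FACS into low and high (top ~1%) gates on anti-HA and streptavidin fluorescence. Polyreactivity labels come from the gate of origin.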

Row | Sequence | polyreactivity (PSR sort gate)
1 | QVQHVESGGGLVQAGGSLRLSCAASGSTFAYNDMGRYRQAPGKERELVADIRSGGNTNYADSVKGRFTISRDNAKNTVYLQMNSLKPEDTAVYYCATDGYRIDVYHPDYRYDYWGQGTQVTVSS | low polyreactivity
2 | QVQHVESGGGLVQAGGSLRLSCAASGSTFGLYAMGWYRQAPGKERELVAAISRRGGSTYYADSVKGRLTISRDNAKNTVYLQMNSLRPVETAVYDCAAVTAYRFDTLGMDYWGQGTQVTVSS | high polyreactivity
3 | QVQHVESGGGLVQAGGSLRLSCAASGSTFRYYAMGWYRQAPGKERELVAAITSSGTSTYYADSVKGRFTISRDNAKNTVYLQMNSLKPEDTAVYSCAAPPVYKWVSSRYDYWGQGTQVTVSS | low polyreactivity
4 | QVQHVESGGGLVQAGGSLRLSCAASGSTFTTNAMGWYRQAPGKERELVAAITASGGRTYYADSVKGRFTISRDNAKNTVYLQMNSLKPEDTAVYYCAADSGNEYDYWGQGTQVTVSS | low polyreactivity
5 | QVQHVESGGGLVQAGGSLRLSCAASGSTFWYNAMGWYRQAPGKERELVAAISYSGGRTYYADSVKGRFTISRDNAKNTVYLQMNSLKPEDTAVYYCNADSRYGGDYWGQGTQVTVSS | low polyreactivity
6 | QVQHVESGGGLVQAGGSLRLSCAASGSTFYRYTMGWYRQPPGKEREFVATITGRGGSTYADSVKGRFTISRDNAKNTVYLQMNSLKPEDTAVYYCAKRQTYREYDYWGQGTQVTVSS | low polyreactivity
7 | QVQHVESGGGLVQAGGSLRLSCAASGSTIRNYAMGWYRQAHGKERELVAAISSGGRTYYADSVKGRFTISRDNAKNPVYLQMTSLKPEDTAVYYCAARVYYWSFAGILYTPTGGYWGQGTQVTVSS | high polyreactivity
8 | QVQHVESGGGLVQAGGSLRLSCAASGSTQTRNPMGWYRKAPGKERELVAAITQRGGSTYYADSVKGRFTISRDNAKNTVYLQMNSLKPEDTAVYYCAKVPSVKYRSIWVLPEYGWGQGTQVTVSS | low polyreactivity
9 | QVQHVESGGGLVQAGGSLRLSCAASGTIFTVYAMGWYRQAPGKERELVAAITRNGGRTYYADSVKGRFTISRDNAKNTVYLQMNSLKPEDTAVYFCAAPGLYSRLDYWGQGTQVTVSS | high polyreactivity
10 | QVQHVESGGGLVQAGGSLRLSCAASGYIFSRYRGWYRQAPGTERELVAAITRGGVSTYYADSVKGRFTISRDNAKNTVYLQMNSLKPEDTAVYYCATGRPVYYVASYDYDYWGQGTQVTVSS | low polyreactivity
11 | QVQHVESGGGLVQAGGSLRLSCAASGYIFYTYAMGWYRQAPGKERELVAGINRGDSTNYADSVKGRFTISRDNAKNTVYLQMNSLKPEDTAVYYCNARQRTYYRTHRIRHKGNGYWGQGTQVTVSS | low polyreactivity
12 | QVQHVESGGGLVQAGGSLRLSCAASGYTFGYYAMGWYRQAPGKERELVASITERGGSTYYADSVKGRFTISRDNAKNTVYLQMNSLKPEDTAVYYCAADWDPSWWLFPTSSYDYWGQGTQVTVSS | low polyreactivity
13 | QVQHVESGGGLVQAGGSLRLSCAASGYTFYIYPMGWYRQAPGKERELVATISSSGGGTYYADSVKGRFTISRDNAKNTVYLQMNSLKPEETAVYYCAADSWRYVAEGLWREYDYWGQRTQVTVSS | low polyreactivity
14 | QVQHVESGGGLVQAGGSLRLSCAASGYTYDPNAMGWYRQAPGKERELVAAISRIGGSTYYADSVKGRFRISRDNAKNTVYLQMNSLKREDTAVYYCAQEYYDGYFPTFDYDYWGQGTQVTVSS | low polyreactivity
15 | QVQHVESGGGLVQAGGSLRLSCAASVRTFYTYAMGRDRQAPGKERELVAAISLSGTRTYYADSVKGRFTISRDNAKNTVYLQMNSLNPEDTAVYYCAADRFNKPYYYWGQGTQVTVSS | high polyreactivity
16 | QVQHVESGGGLVQAGGSLRLSCAASVSTFEYYAIGRYRQAPGKERELVASISSGGSTYYADSVKGRFTISRDNAKNTVYLQMNSLKPEDTAVYYCAADSYYGYEYWGQGTQVTVSS | low polyreactivity

Row | Sequence | polyreactivity (PSR sort gate)
17 | QVQHVESGGGLVQAGGSLRLSCASSGFILEPYGMGWYRPAPGKERELVAAITSGASTYYADSVKGRFTISRDNAMNTVYLQMNILKPEDTAVYYCAVDPYSTYSEYDSWGQGTQVTVSS | low polyreactivity
18 | QVQHVESGGGLVQAGGSLRLSCASSGITFPDYSMGWYRQAPGKERELVAGISSTGDSTYYADSVKGRFTISRDNGKKTVYLQMNSLKPEDTAVYYCNAAQERPIIILFSKYDYWGQGTQVTVSS | low polyreactivity
19 | QVQHVESGGGLVQAGGSLRLSCASSGSTFWFYAMGWYRQAPGKERELVATINWYGGTTNYADSVKGRFTISRDNAKNSVYLQMYSLKPEDTADYYGAGYQALTYGSYEYWGQGSQVTVSS | low polyreactivity
20 | QVQHVESGGGLVQAGGSLRLSCAVSGRTFYYYAMGWYRQAPGKERELVAAISSSGGSTYYADSVKGRFTISRDNAKNTVYLQMNSLKPEDTAVYYCAAAARKVSVSRYLYYYWGQGTQVTVSS | high polyreactivity
21 | QVQHVESGGGLVQAGGSLRLSCDASGRIFLYKAMGWYRQAPGKERELVAAIDGGGTTYADSVKGRFTISRDNAKNTVYLQRNSLKPEDTAVYYCAADWYYQYSIYRYGYWGQGTQVTVSS | low polyreactivity
22 | QVQHVESGGGLVQAGGSLRLSCPASGSIFARYAMGWYRQAPGKERELVAAITSGGITNYADSVMGRFTISRDNAKNTVYLQMISLNPEDTAVYYCAARRSGRVRYDYWGQGTQVTVSS | high polyreactivity
23 | QVQHVESGGGLVQAGGSLRLSCPASGSTLYGYAMGWYRQEPGKESELVAAINTGASTNYADSVKGRFTISRDNAKNTVYLQMNSLKPEDTAVYYCAASYSLTFWDKDDYWGQGTQVTVSS | low polyreactivity
24 | QVQHVESGGGLVQAGGSLRLSSAASGRIFKRNALGWYRQAPGKEREMVATISGSGGSTYYADSVKGRFTISRDNAKNTVYLQMNSLNPEDTAVYYCAAGYKSYWRLSSPKMDYWGQGTQVTVSS | high polyreactivity
25 | QVQHVESGGGLVQAGGSLRLSSAASGRTFYYNAMGWYRQAPGKERELVASITITDSTNYADSVKGRFTISRDNAKNTVYLQMNSLKPEDTAVYYCAKRGWGTSFYLSDYWGQGTQVTVSS | low polyreactivity
26 | QVQHVESGGGLVQAGGSLRLTCAATGRIFYTNTMGWYRQAPGKEREFVAAISWRGGSTYYADSVKGRFTISRDNAKNTVYLQMNSLKPEDTAVYYCAKTRTYFLSRYVSWGQGTQVTVSS | high polyreactivity
27 | QVQHVESGGGLVQAGGSLSLICAASGSIFCYYAMGWYRKAPGKERELVAAIDSGGSTYYADSVKGRFTISRDNAKNTVYLQMNILKPEDTAVYYCAAGVSSFSPYDSWGQGTQVTVSS | low polyreactivity
28 | QVQHVESGGGLVQAGGSLSLSCAASGSTFKHYAMGWYRQAPGKERELVAAISSRGGSTHYADSVKGRFRISRDNAKNTVYLQMNSLKPEDTAVYYCARDTDPQSSRSSDYDYWGQGTQVTVSS | low polyreactivity
29 | QVQHVESGGGLVQAGGSLSLSCADSGFIFRYYAMGWYRQAPGKERELDAAISWSGGSTYYADSVKGRFTISRDNSKNTVYLQMNSLKPEDTAVYYCAADRYAILFYAEDYWGQGSQVTVSS | low polyreactivity
30 | QVQHVESGGGLVQAGGSQRLSCAASGSIFDYYAMGWYRQAPGKERELVAAISTSTSSTYYADSVKGRFTISRDNAKNTVYLQLNSLKPEDTAVYYCAAVGESQPEYPGYDYWGQGTQVTVSS | low polyreactivity
31 | QVQHVESGGGLVQAGGSRRLSCAASGSTFYGYAMGWYRQAPGKEREFVAAITTSGGSTYYADSVKGRFTISRDNANNTVYLQMNSLKPEDTAVYYCAADGFYYDDGYWGQGTQVTVSS | low polyreactivity
